In patent US20150031601A1:

Molecular target: serum proteins
Assay: 90% serum, 30 kDa ultrafiltration, HPLC

Protein binding (%) | Binder
99 | GFCWNVCVYRNGVRVCHRRCW [SEQ ID NO: 291]
93 | GFCWRVCVYRNGVRKCHRRCN [SEQ ID NO: 315]
98 | GFCWRVCVYRNGARKCYRRCN [SEQ ID NO: 313]
72 | GFCWNVCVYRNGVRVCHRRCK [SEQ ID NO: 284]
74 | GFCWNVCVARNGVRVCHRRCN [SEQ ID NO: 299]
43 | GFCWNVCVHRNGVRVCHRRCN [SEQ ID NO: 303]
99 | GFCWYWCVYRNGVRVCYRRCN [SEQ ID NO: 20]
85 | GFCWNWCVYRNGVRVCHRRCN [SEQ ID NO: 267]
94 | GFCWNVCVRRNGVRVCHRRCN [SEQ ID NO: 308]
66 | GFCWNVCVYRNGVRVCHRRCG [SEQ ID NO: 281]
80 | GFCWNLCVYRNGVRVCHRRCN [SEQ ID NO: 263]
80 | GFCWNVCLYRNGVRVCHRRCN [SEQ ID NO: 275]
83 | GFCWNVCVYRNGVRVCHRRCR [SEQ ID NO: 289]
74 | GFCWNVCFYRNGVRVCHRRCN [SEQ ID NO: 272]
82 | GFCWNVCVYRNGVRVCHRRCH [SEQ ID NO: 282]
76 | GFCWNVCVKRNGVRVCHRRCN [SEQ ID NO: 305]
